The values below come from article PMC3961392.

This assay has as its target APOBEC3G (human), Q9HC16. The assay is described as follows: SEC; 10-15 µg of purified enzyme (low enzyme concentration) on a 10 mL Superdex 200 column; 50 mM Tris pH 7.5, 200 mM NaCl; masses and oligomerization states from a Bio-Rad gel filtration standard curve. Conditions: remark: other sources report otherwise. In general terms: SEC sorts molecules by how far they enter the pores of the column.

B1: APOBEC3G, Q9HC16 1-384 (enzyme)
chain: MKPHFRNTVERMYRDTFSYNFYNRPILSRRNTVWLCYEVKTKGPSRPPLDAKIFRGQVYSELKYHPEMRFFHWFSKWRKLHRDQEYEVTWYISWSPCTKCTRDMATFLAEDPKVTLTIFVARLYYFWDPDYQEALRSLCQKRDGPRATMKIMNYDEFQHCWSKFVYSQRELFEPWNNLPKYYILLHIMLGEILRHSMDPPTFTFNFNNEPWVRGRHETYLCYEVERMHNDTWVLLNQRRGFLCNQAPHKHGFLEGRHAELCFLDVIPFWKLDLDQDYRVTCFTSWSPCFSCAQEMAKFISKNKHVSLCIFTARIYDDQGRCQEGLRTLAEAGAKISIMTYSEFKHCWDTFVDHQGCPFQPWDGLDEHSQDLSGRLRAILQNQEN
On to B1, for which the stoichiometry N (as a rule, the number of molecules, sites or subunits per partner or assembly) was found to be 2.
